# Experimental data published in patent publication US11472855, “RNA-binding protein” (Panitch Schwarze Belisario & Nadel LLP).
# T1: hPUF_MT(R1_Q16E, R3→R5, R4→R6) (R1 repeat Q16E)
# T1 chain: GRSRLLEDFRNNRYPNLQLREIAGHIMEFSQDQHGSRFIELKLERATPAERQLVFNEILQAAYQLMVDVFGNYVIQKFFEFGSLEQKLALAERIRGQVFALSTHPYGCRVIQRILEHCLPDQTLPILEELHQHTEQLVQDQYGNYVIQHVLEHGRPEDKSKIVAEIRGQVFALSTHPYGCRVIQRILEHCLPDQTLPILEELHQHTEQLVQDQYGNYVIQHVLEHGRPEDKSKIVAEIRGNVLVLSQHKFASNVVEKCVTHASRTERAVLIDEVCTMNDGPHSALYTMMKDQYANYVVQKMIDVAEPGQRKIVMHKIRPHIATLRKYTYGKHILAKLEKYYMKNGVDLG
# T2: hPUF_MT(1-2-5-6-5-6-6-7-8)
# T2 chain: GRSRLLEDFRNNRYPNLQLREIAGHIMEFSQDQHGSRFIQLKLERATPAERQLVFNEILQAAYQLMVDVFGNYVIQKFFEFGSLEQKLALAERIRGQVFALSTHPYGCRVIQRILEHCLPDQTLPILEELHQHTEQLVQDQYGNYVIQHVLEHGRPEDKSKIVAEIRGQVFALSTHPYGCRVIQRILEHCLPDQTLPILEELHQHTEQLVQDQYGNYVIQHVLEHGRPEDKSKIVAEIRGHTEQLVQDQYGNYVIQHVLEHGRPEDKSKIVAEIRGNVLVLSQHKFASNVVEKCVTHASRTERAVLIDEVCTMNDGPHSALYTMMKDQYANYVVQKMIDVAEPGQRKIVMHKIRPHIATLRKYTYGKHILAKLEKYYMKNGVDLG
# T3: hPUF_MT(R1_S12N, R3→R5, R4→R6) (R1 repeat S12N)
# T3 chain: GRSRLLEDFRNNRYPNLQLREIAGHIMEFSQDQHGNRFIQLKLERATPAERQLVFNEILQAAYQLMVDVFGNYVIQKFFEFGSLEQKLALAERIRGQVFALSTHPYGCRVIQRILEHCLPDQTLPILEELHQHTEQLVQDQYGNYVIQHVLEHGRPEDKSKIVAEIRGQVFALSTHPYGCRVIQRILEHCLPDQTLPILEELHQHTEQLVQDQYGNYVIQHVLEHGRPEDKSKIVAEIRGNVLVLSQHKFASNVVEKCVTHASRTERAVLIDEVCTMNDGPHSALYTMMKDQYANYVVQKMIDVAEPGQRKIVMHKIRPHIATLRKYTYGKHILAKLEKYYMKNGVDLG
# T4: hPUF_MT(R3→R5, R4→R6)
# T4 chain: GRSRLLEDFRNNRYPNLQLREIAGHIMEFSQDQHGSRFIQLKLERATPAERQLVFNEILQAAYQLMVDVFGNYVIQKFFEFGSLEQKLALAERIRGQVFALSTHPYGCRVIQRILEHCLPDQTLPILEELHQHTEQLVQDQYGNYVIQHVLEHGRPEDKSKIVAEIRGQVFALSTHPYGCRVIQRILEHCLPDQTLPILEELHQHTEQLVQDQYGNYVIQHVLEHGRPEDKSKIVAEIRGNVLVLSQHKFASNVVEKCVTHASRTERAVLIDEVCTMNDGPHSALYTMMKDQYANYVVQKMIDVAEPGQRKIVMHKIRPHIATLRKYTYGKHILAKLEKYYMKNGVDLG
# T5: hPUF_MT(R8_N12C, R3→R5, R4→R6) (R8 repeat N12C)
# T5 chain: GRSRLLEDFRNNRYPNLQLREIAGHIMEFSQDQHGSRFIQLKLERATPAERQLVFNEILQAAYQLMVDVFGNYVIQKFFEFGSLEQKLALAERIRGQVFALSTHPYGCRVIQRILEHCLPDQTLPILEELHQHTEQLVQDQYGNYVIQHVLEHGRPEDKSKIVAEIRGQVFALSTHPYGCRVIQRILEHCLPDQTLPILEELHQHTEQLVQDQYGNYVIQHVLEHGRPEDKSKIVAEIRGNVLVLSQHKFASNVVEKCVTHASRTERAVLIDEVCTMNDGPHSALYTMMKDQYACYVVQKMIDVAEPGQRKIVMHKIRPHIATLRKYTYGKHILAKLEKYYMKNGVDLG
# T6: hPUF_MT(R8_N12S, R3→R5, R4→R6) (R8 repeat N12S)
# T6 chain: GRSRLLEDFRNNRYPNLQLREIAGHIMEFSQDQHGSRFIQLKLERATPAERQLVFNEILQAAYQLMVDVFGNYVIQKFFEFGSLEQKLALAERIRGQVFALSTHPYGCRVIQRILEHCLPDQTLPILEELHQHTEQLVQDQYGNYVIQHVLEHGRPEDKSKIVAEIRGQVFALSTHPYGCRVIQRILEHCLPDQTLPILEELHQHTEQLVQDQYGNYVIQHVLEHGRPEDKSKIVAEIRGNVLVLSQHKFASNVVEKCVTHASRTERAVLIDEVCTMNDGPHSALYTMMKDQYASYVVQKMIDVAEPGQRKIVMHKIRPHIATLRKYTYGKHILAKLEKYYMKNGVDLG
# T7: hPUF_MT(R8→R5) (UniProt Q14671 SEQ:1-349)
# T7 chain: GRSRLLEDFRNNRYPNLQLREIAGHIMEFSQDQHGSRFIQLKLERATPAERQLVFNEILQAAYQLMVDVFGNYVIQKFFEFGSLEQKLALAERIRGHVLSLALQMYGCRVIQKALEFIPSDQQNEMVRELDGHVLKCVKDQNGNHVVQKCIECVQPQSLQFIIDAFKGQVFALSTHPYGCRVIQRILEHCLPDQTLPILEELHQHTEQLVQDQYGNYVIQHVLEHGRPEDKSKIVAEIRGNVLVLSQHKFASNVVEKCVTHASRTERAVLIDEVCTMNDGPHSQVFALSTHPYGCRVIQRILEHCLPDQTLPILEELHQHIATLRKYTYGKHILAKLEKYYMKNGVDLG
# T8: hPUF_MT(1-2-5-5-6-5-6-7-8)
# T8 chain: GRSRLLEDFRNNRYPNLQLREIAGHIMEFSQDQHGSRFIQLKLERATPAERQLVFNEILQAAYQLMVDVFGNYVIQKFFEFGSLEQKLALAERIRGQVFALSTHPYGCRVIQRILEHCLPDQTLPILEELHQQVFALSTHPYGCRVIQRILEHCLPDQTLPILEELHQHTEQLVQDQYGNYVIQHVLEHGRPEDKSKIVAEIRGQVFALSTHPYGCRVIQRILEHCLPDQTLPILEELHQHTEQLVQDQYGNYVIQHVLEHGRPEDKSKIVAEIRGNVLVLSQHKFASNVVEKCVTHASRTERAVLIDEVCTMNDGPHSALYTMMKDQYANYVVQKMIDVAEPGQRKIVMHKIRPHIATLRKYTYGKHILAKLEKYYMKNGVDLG
# T9: hPUF_MT(R7_S12C,E16Q, R3→R5, R4→R6) (R7 repeat S12C,E16Q)
# T9 chain: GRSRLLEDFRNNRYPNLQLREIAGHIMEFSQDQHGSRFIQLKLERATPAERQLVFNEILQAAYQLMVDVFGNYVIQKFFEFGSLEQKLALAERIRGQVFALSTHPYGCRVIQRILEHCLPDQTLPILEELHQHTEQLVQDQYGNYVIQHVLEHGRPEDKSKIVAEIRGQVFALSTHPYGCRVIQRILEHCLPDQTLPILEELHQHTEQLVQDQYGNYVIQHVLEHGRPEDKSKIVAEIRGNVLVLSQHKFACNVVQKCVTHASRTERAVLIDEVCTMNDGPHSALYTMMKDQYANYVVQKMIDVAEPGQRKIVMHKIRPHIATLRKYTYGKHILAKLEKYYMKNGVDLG
# T10: hPUF_MT(R7_E16R, R3→R5, R4→R6) (R7 repeat E16R)
# T10 chain: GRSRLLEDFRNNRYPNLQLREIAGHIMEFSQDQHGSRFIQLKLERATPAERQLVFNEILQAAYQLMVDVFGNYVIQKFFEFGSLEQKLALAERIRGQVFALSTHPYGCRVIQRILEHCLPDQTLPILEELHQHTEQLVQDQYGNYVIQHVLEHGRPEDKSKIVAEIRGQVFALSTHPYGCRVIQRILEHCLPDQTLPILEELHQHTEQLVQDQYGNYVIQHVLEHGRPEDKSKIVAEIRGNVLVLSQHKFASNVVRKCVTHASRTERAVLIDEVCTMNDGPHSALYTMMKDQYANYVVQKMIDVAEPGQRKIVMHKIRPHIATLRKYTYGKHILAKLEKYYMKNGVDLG
# T11: hPUF_MT(R7_S12N,E16Q, R3→R5, R4→R6) (R7 repeat S12N,E16Q)
# T11 chain: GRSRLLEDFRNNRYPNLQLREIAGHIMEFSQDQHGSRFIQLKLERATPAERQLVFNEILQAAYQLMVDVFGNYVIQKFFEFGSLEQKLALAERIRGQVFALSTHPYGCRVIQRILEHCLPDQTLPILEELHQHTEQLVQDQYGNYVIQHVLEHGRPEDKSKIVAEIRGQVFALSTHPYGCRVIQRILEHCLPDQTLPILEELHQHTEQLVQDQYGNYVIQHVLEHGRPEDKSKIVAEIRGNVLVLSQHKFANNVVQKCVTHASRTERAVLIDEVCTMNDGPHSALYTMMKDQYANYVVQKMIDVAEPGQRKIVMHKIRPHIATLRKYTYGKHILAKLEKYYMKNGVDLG
# T12: hPUF_MT(1-2-6-5-6-5-6-7-8)
# T12 chain: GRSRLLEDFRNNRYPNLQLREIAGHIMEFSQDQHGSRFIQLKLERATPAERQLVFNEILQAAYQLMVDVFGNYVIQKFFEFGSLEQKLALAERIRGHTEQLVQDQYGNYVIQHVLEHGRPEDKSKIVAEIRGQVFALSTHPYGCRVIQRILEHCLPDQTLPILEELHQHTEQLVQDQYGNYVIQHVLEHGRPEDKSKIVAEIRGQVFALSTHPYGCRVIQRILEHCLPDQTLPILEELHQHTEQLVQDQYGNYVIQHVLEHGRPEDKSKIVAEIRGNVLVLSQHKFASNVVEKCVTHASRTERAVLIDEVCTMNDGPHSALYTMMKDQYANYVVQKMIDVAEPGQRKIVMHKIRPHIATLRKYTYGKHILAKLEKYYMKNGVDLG
# T13: hPUF_MT(R1_Q16R, R3→R5, R4→R6) (R1 repeat Q16R)
# T13 chain: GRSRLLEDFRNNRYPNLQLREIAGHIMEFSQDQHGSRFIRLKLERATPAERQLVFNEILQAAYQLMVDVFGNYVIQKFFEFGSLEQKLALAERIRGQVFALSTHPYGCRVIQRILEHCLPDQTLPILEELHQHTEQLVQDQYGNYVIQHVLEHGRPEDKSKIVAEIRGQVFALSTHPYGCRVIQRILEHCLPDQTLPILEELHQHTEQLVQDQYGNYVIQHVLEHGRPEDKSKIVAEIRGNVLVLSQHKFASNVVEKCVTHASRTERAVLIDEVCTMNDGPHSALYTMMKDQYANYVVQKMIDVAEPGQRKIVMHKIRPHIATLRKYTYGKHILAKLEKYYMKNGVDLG
# Tests used:
# Details in all cases: label: Alexa680 at 5' and 3'
# [1] = molecular target: T1, hPUF_MT(R1_Q16E, R3→R5, R4→R6); test: EMSA; G>>U=C
# [2] = molecular target: T2, hPUF_MT(1-2-5-6-5-6-6-7-8); test: EMSA
# [3] = molecular target: T3, hPUF_MT(R1_S12N, R3→R5, R4→R6); test: EMSA; U>C>>G=A
# [4] = molecular target: T4, hPUF_MT(R3→R5, R4→R6); test: EMSA; U=C>A>G at R1 position; backbone printed as R4→R5
# [5] = molecular target: T5, hPUF_MT(R8_N12C, R3→R5, R4→R6); test: EMSA; no binding
# [6] = molecular target: T6, hPUF_MT(R8_N12S, R3→R5, R4→R6); test: EMSA; no binding
# [7] = molecular target: T7, hPUF_MT(R8→R5); test: EMSA; substantially no binding
# [8] = molecular target: T4, hPUF_MT(R3→R5, R4→R6); test: EMSA; binds U exclusively at R8 position
# [9] = molecular target: T8, hPUF_MT(1-2-5-5-6-5-6-7-8); test: EMSA
# [10] = molecular target: T9, hPUF_MT(R7_S12C,E16Q, R3→R5, R4→R6); test: EMSA; U>C
# [11] = molecular target: T10, hPUF_MT(R7_E16R, R3→R5, R4→R6); test: EMSA; binds C and U
# [12] = molecular target: T11, hPUF_MT(R7_S12N,E16Q, R3→R5, R4→R6); test: EMSA; binds U exclusively
# [13] = molecular target: T4, hPUF_MT(R3→R5, R4→R6); test: EMSA; binds G exclusively at R7 position
# [14] = molecular target: T12, hPUF_MT(1-2-6-5-6-5-6-7-8); test: EMSA
# [15] = molecular target: T4, hPUF_MT(R3→R5, R4→R6); test: EMSA; U=C>A>G at R1 position
# [16] = molecular target: T13, hPUF_MT(R1_Q16R, R3→R5, R4→R6); test: EMSA; C>U>>G>A; printed as Q16E (C recognition)
binder,measurement,setting,value
CCAGAAUUGUAUAUGUUCG (ssRNA) [OTS-2020],binding result,[1],binds
CCAGAAUUGUUAUAUAUUCG (ssRNA) [OTS-2082],binding signal,[2],~3 fold of WT
CCAGAAUUGUAUAUUUUCG (ssRNA) [OTS-2022],binding result,[3],binds
same,binding result,[4],binds
CCAGAAUAGUAUAUAUUCG (ssRNA) [OTS-1825],binding result,[5],no binding
same,binding result,[6],no binding
same,binding result,[7],no binding
same,binding result,[8],no binding
CCAGAAUUGUAUAAUAUUCG (ssRNA) [OTS-2081],binding signal,[9],~3 fold of WT
CCAGAAUUUUAUAUAUUCG (ssRNA) [OTS-2032],binding result,[10],binds
same,binding result,[11],binds
same,binding result,[12],binds
same,binding result,[13],no binding
CCAGAAUUGUAUAUUAUUCG (ssRNA) [OTS-2080],binding signal,[14],~3 fold of WT
CCAGAAUUGUAUAUCUUCG (ssRNA) [OTS-2021],binding result,[15],binds
same,binding result,[16],binds
